Experimental data reported in patent publication US20070042946A1.

What was measured:
[1] = molecular target: human α-thrombin (human), P00734; test: cell-based or functional assay
[2] = molecular target: human α-thrombin (human), P00734; test: amidolytic assay, 25° C.; from competitive inhibition at inhibitor above 20 nM (footnote c); non-competitive behaviour below 20 nM
[3] = molecular target: human α-thrombin (human), P00734; test: amidolytic assay, Tos-Gly-Pro-Arg-pNA hydrolysis by human α-thrombin, 25° C.

| IC50 (DCT), clotting assay, 37° C.; recombinant peptide WD22-R-P^(d) [1] | IC50 (DCT), clotting assay, 37° C.; synthetic peptide [1] | Ki [2] | IC50 (DCT), clotting assay, 37° C. [1] | Ki [3] | IC50 (DCT), clotting assay, 37° C.; recombinant peptide WD22-R-YP^(d) [1] | Binder |
| --- | --- | --- | --- | --- | --- | --- |
| 8.1 nM | 6.7 nM | 171 nM |  |  |  | WDPRPQRHNDGDFEPIPEEYLQ (modifications not checked) [WD22-R-P] |
|  |  |  | 26 nM | 39 nM |  | WDPRPQLHNDGDFEPIPEEYLQ (modifications not checked) [WD22-L-P] |
|  | 4.5 nM | 358 nM |  |  | 4.8 nM | WDPRPQRHNDGDYEPIPEEYLQ (modifications not checked) [WD22-R-YP] |
|  |  |  | > 100000 nM | > 2000 nM |  | FNPRP (modifications not checked) [FN] |
